Laboratory results taken from the nanobody polyreactivity screen of Harvey et al. (2022).

Assay: yeast display, Sf9 membrane polyspecificity reagent, FACS + sequencing; frameworks hold sequencing errors
How it was run: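 Galactose-induced (36–48 hours) yeast carrying a synthetic nanobody display library were exposed to 10% biotinylated, detergent-solubilized Sf9 membrane reagent at 4 °C for 1 hour. FACS followed streptavidin microbead enrichment, using low and high (top ~1%) gates for expression (anti-HA) and reagent binding (streptavidin). Colony PCR, MiSeq 2 × 250 sequencing and CDR-length filtering followed. Labels for polyreactivity reflect the gate of origin.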

| Sequence | polyreactivity (PSR sort gate) |
| --- | --- |
| QVQLVESGGGLVQAGGSLRLSCAASGRTFANNAMGWYRQAPGKERELVAAISNGDSTYADSVKGRFTISRDNAKNTVYLQMNSLKPEDTAVYYWATRTKEDYTGDYWGQGTQVTVSS | low polyreactivity |
| QVQLVESGGGLVQAGGSLRLSCAASGRTFAPNAMGRSRQAPGKERELVAAITSIGTRTYYADSVKGRFTISRDNAKNTVYLHKNSLKTEVTAVYYCNKKRNADYDYWGQGTQVTVSS | low polyreactivity |
| QVQLVESGGGLVQAGGSLRLSCAASGRTFAPYALGWYRQAPRKERELVAAITNGGSTSYADSVKGRFTISRDNAKNTVYLQMNSLKPEDTAVYYCAADANRYHRQRWSPYKMYYWGQGTQVTVSS | low polyreactivity |
| QVQLVESGGGLVQAGGSLRLSCAASGRTFAPYAMGWYRQAPGKERELVAAISQRGGSTYYADSVKGRFTISRDNAKNTVYLQMNSLKPEDTAIYYCAATKYFYRLSSAFSFGTYGYWGQGTQVTVSS | low polyreactivity |
| QVQLVESGGGLVQAGGSLRLSCAASGRTFAPYAMGWYRQAPGKERELVAGITYRTGNTYYADSVKGRFTISRDNAKNTVYLQMNTLKPEDTGVYYCAAYSGYYRPRYNYWGQGTQVTVSS | high polyreactivity |
| QVQLVESGGGLVQAGGSLRLSCAASGRTFAPYVMGWYRQAPGKERELVAAITWSGGSTYYADSVKGRFTISRDNAKKTVYLQMNSLKPEDTAVYYCAVKGAGGPKYDYWGQGTQVTVSS | high polyreactivity |
| QVQLVESGGGLVQAGGSLRLSCAASGRTFARYAMGRYRQAPGKERELVAAITRGSGSTYYADSVKGRFTISRDNAKNTVYLQMNSLKTEDTAVYFCAKRSRGLKFDYWGQGTQVTVSS | high polyreactivity |
| QVQLVESGGGLVQAGGSLRLSCAASGRTFARYAMGWYRQAPGKERELVASNRRGTSTNYADSVKGRFTISRDNAKNTVYLQMNSLKPEDTAVYYCAARVGTQGDHGDYWGQGTQVTVSS | high polyreactivity |
| QVQLVESGGGLVQAGGSLRLSCAASGRTFASNAMGCYRQAPGKERELVAAITISGGRTYYADSVKGRFTISRDNAKNTVYLQMNSLKPEDTAVYYRAAAKHSWRPSYYWGGYWGQGTQVTVSS | low polyreactivity |
| QVQLVESGGGLVQAGGSLRLSCAASGRTFASYAMGWNRQPPGKERELFARISKSGGSTYYADSVKGRFTISRDNAKNTVYLQMNSLKPEDTAVYYCAAEYPFEIGYVYYSIDYDYWRQGTQVTVSS | low polyreactivity |
| QVQLVESGGGLVQAGGSLRLSCAASGRTFASYAMGWYRQAPGKERELVAGITSGGNTYYADSVKGRFTISRDNAKNTVYLQMNSLKPEDTAVFYCAADGVYKGWPTHYDYWGHGTQVTVSS | high polyreactivity |
| QVQLVESGGGLVQAGGSLRLSCAASGRTFASYAMGWYRQAPGKERQLVAAITRGGNTNYADSVKGRFTISRDNAKNTVYLQMNSLNPEDTAVYYCATEGFVYSWLWEFEYWGQGTQVTVSS | low polyreactivity |
| QVQLVESGGGLVQAGGSLRLSCAASGRTFATNAMGWYRQAPGKERELVAAISRRGASTYYADSVKGRFTISRDNAKNTVYLQMNSLKPEDTAVYYCAARQYIRGARIYDYWGQGTQVTVSS | high polyreactivity |
| QVQLVESGGGLVQAGGSLRLSCAASGRTFATYAMGWYRQAPGKERELVAAISNSGGRTNYADSVKGRFTISRDNAKNTVYLQMNSLKPEDTAVYYCAAAKRYYSEMYWGQGTQVTVSS | high polyreactivity |
| QVQLVESGGGLVQAGGSLRLSCAASGRTFATYTMGWYRQAPGQERELVAAITRGGGSTFYADSVQGRFTITRDHAKNPVYLQMNSLKPEDTAVYYFAARIPGSFKSGYWGQGTQVTVSS | high polyreactivity |
| QVQLVESGGGLVQAGGSLRLSCAASGRTFAVYAMGWYRQAPGKERELVAAISRRGGSTYYADSVKGRFTISRDNAKNTVYLQMNSLKPEDTAVYYCATDNSQSTYPYDYWGQGTQVTVSS | high polyreactivity |
| QVQLVESGGGLVQAGGSLRLSCAASGRTFAYNAMGWYRQAPGKERELVAAIRWSADSTYYADSVKGRFTISRDNAKNTVYLQMNSLKPEDTAVYYCARRRYVGAFSVATLDYWGQGTQVTVSS | high polyreactivity |
| QVQLVESGGGLVQAGGSLRLSCAASGRTFAYNAMGWYRQAPGKERELVAAITRRGGSTYYADSVKGRFTISRDNAKITVYLQMNSLKPEDTAVYYCDARWVTTVQGDGRYDYWGQGTQVTVSS | low polyreactivity |
| QVQLVESGGGLVQAGGSLRLSCAASGRTFAYNTMGWYRQAPGKERELVAVISSGGRTYYADSGKGRFTMSRDNAKNTVYLQMNSLKPEDTAVYYCAADGYPYKYDYWGQGTQVTVSS | high polyreactivity |
| QVQLVESGGGLVQAGGSLRLSCAASGRTFAYYAMGWYRQAPGKERELVAAIDSSGGDTYYADSVKGRFTISRDNAKNTVYLQMNSLKPEDTAVYYCAADYYWEMDSWGQGTQVTVSS | low polyreactivity |
| QVQLVESGGGLVQAGGSLRLSCAASGRTFAYYAMGWYRQAPGKERELVAAISSGGGSTYYADSVKGRFTISRDNAKNTVYLQMNRLKPEDTSVYYCNKGFEFWGQGTQVTVSS | high polyreactivity |
| QVQLVESGGGLVQAGGSLRLSCAASGRTFAYYAMGWYRQAPGKERELVAAITQSGGRTYYADSVKGRFTISRDNAKNTVYLQMNSLKPEDTAVYYCAARRISGKWEYDYWGQGTQVTVSS | high polyreactivity |

| Sequence | polyreactivity (PSR sort gate) |
| --- | --- |
| QVQLVESGGGLVQAGGSLRLSCAASGRTFAYYAMGWYRQAPGTERELVAAISYSGARTYYADSVKGRFTISRDNAKNTVYLQMNSLKPEDTAVYYCAKSRGYPYTDYNYWGQGTQVTVSS | high polyreactivity |
| QVQLVESGGGLVQAGGSLRLSCAASGRTFAYYTMGWYRQAPGKERELVAAISWIGGSTYYADSVKGRFTISRDNAKNTVYLQMNSLKPEDTAVYYCNAVGLHWWPGDYWGQGTQVTVSS | low polyreactivity |
| QVQLVESGGGLVQAGGSLRLSCAASGRTFAYYTMGWYRQAPGKERELVARISGYGGSTYYADSVKGRFTLSRDNAKNTVYLQMNSLKPEDTAVYYCNVVGAYYRYDYWGQGTQVTVSS | high polyreactivity |
| QVQLVESGGGLVQAGGSLRLSCAASGRTFCSNAMGWYRQAPGKERELVARISWSGGSTYYADSVKGRFTISRDNAKNTVYLQMNSLKPEVTAVYYCAKYYPGRSAFSEGTYWGQGTQVTVSS | low polyreactivity |
| QVQLVESGGGLVQAGGSLRLSCAASGRTFCSYTKAWYRQAPGKERELVAAISSGGSTTYADSVKGRFTISRDNAKNTVYLQLNSLKPEDTAVYYCATRAVWSSWGRRYDPWGQGTQVTVSS | high polyreactivity |
| QVQLVESGGGLVQAGGSLRLSCAASGRTFCVYVMGWYRQAPGKERQLVAAIDDSGGSTYYADSVKGRFTISRDNAKNTVYLQMNSLKPEDTAVYYCAKTKTQYLTSEIRFDYWGQGTQVTVSS | low polyreactivity |
| QVQLVESGGGLVQAGGSLRLSCAASGRTFDEYPMGWYRQAPGKERELVAAISTRGGSTYYADSVKGRFSISRDNAKNTVYLQMNSLKPEDTAVYYCAKAYYPYRYFSVYSDLESWGQGTQVTVSS | high polyreactivity |
| QVQLVESGGGLVQAGGSLRLSCAASGRTFDFYAMGWYRQAPGKERELVAGITSGDSTHYADSVKGRFTISRDNAKNTVYLQMNSLKPEDTAVYYCAADITWYDYAGSHIVEHDYWGQGTQVTVSS | low polyreactivity |
| QVQLVESGGGLVQAGGSLRLSCAASGRTFDGYTMGWYRQAPGKERELVAAISGGGGSTYYADSVKGRFTISRDNAKNTVYLQLNSLKPEDTAVYYCNKVVRQHGGLYNYWGQGTQVTVSS | low polyreactivity |
| QVQLVESGGGLVQAGGSLRLSCAASGRTFDHNAMGWYRQAPGKERELVAAITWSGGITDYADSVKRPFTISRDNAKNTVYLQMNSLKPEDTAVCGQGTQVTVSS | low polyreactivity |
| QVQLVESGGGLVQAGGSLRLSCAASGRTFDHYAMGWYIQAPGKERELVAAISNSDGSTNYADSVKGRFTISRDNAMNTVYLQMNSLKPEDTAVYYCNKLYRGGWYDYWGLGTQVTVSS | low polyreactivity |
| QVQLVESGGGLVQAGGSLRLSCAASGRTFDIYAMGWYRQAPGKERELVAAINRSAGDTYYADSVKGGFTISRDNAKNTVYLQMNSLKPEDTAVYYCNAERVPYVPWLLYTEYVNYVYWGQGTQLTVSS | high polyreactivity |
| QVQLVESGGGLVQAGGSLRLSCAASGRTFDLNGMGWYRQAPGKERELVAAITRGGSTNYADSVKGRFTISRDNAKNTVYLQMNSLKPEDTAVYYCAADSSFWYYDRYDYWGQGTQVTVSS | low polyreactivity |
| QVQLVESGGGLVQAGGSLRLSCAASGRTFDPYAMGWYIQAPGKERELVAAITSGDDTYYADSVKGRFTISRDNAKNTVYLQMNSLKPEDTAVYYCAADSFTPDYYSHDYWGQGTQVTVSS | low polyreactivity |
| QVQLVESGGGLVQAGGSLRLSCAASGRTFDPYAMVWYRQAPGKERELVAAISSGGSTNYADSVKGRFTISRDNAMYTVYLQMNSLKPEDTAVYFCATDSGDGEGDYWGQGTQVTVSS | low polyreactivity |
| QVQLVESGGGLVQAGGSLRLSCAASGRTFDRNAMGWYRQAPGKERELVAAITSRGGRTYYADSVKGRFTISRDNAKNTVYLQMNSLKPEDTAVYYCAAQGRGHRFGDSRDNYWGQGTQVTVSS | high polyreactivity |
| QVQLVESGGGLVQAGGSLRLSCAASGRTFDRNAMGWYRQAPGKERELVARITIDGSTNYADSVKGRFTISRDNAKNTVYLQMNSLKPEDTAVYYCATDQLSLSWYFRPYDYGYWGQGTQVTVSS | high polyreactivity |
| QVQLVESGGGLVQAGGSLRLSCAASGRTFDRNTMGWYRQAPGKERELVAAISGSSARTYYADSVKGRFTISRDNAKNTVYLQMNSLKPEDTAVYYCNAEYGARAQHYEGDSWGQGTQVTVSS | high polyreactivity |
| QVQLVESGGGLVQAGGSLRLSCAASGRTFDRYAMGWYRQAPGKERELVAAITWSGGRTYYADSVKGRFTISRDNAKNTVYLQMNSLKPEDTAVYYCAADDPRDHWYTAMDYWGQGTQVTVSS | low polyreactivity |
| QVQLVESGGGLVQAGGSLRLSCAASGRTFDRYAMGWYRQAPGKERELVATISRRSSITYYADSVKGRFTISRDNAKNTVYLQMNRLKPEDTAVYYCAATSLYPTWRRGYDYWGQGTQVTVSS | high polyreactivity |
| QVQLVESGGGLVQAGGSLRLSCAASGRTFDSYTMGWYRQAPGKERELVARIRWSGGSTYYADSVKGRFTISRDNAKNTVYLQMNSLKPEDTAVYYCAVYQYVGYTMDYWGQGTQVTVSS | low polyreactivity |
